Results published in paper PMC7154865, “High-Level Expression, Purification and Initial Characterization of Recombinant Arabidopsis Histidine Kinase AHK1” (Plants, 2020).
Each block holds one molecule with its values, some of them ahead of it.

Experiments:
[1] = molecular target: ETR1 (Arabidopsis thaliana) (UniProt P49333); experiment: MST; conditions: cited from earlier work
[2] = molecular target: AHP1 (Arabidopsis thaliana) (UniProt Q9ZNV9); conditions: cited from earlier work
[3] = molecular target: ETR2 (Arabidopsis thaliana) (UniProt Q0WPQ2); experiment: MST; conditions: cited from earlier work
[4] = molecular target: recombinant full-length Arabidopsis histidine kinase AHK1 (H10-TEV-AHK1), solubilized in FosCholine-16 (Arabidopsis thaliana) (UniProt Q9SXL4); experiment: MST; 40 nM AlexaFluor488-labelled AHK1 titrated with unlabelled AHK1 (12 uM to 0.4 nM); 50 mM Tris, 300 mM NaCl, 0.015% FosCholine-16, glycerol, pH 7.6; 40% MST power, 70% LED power; initial fluorescence evaluated; one-binding-site model; apparent Kd; monomer to dimer
[5] = molecular target: T1, recombinant full-length Arabidopsis histidine kinase AHK1 (H10-TEV-AHK1), solubilized in FosCholine-16 (Arabidopsis thaliana, UniProt Q9SXL4 1-1207, AlexaFluor488-NHS label on the labelled copy (40 nM) used in MST; the titrated copy is unlabelled); experiment: MST; 40 nM AlexaFluor488-labelled AHK1 titrated with AHP2-GST (12.5 uM to 0.4 nM); HEPES/Tris 50 mM, 300 mM NaCl, FosCholine-16, 5% glycerol, pH 7.6; 40% MST power, 30% LED power; T-Jump evaluated; one-binding-site model; apparent Kd; seven measurements; conditions: both partners purified
T1 construct: Arabidopsis histidine kinase 1 (AHK1), Arabidopsis thaliana, full length; cloned into pET16b-H10-TEV with primers from the ATG to the stop codon; a TEV site lies between the tag and AHK1; No step that cleaves the tag is described; also called AHK1 sensor kinase; AHK1 osmosensor; source: E. coli BL21 (DE3) with pRARE, solubilized with 1% FosCholine-16, purified (Ni-NTA)
T1 sequence (looked up): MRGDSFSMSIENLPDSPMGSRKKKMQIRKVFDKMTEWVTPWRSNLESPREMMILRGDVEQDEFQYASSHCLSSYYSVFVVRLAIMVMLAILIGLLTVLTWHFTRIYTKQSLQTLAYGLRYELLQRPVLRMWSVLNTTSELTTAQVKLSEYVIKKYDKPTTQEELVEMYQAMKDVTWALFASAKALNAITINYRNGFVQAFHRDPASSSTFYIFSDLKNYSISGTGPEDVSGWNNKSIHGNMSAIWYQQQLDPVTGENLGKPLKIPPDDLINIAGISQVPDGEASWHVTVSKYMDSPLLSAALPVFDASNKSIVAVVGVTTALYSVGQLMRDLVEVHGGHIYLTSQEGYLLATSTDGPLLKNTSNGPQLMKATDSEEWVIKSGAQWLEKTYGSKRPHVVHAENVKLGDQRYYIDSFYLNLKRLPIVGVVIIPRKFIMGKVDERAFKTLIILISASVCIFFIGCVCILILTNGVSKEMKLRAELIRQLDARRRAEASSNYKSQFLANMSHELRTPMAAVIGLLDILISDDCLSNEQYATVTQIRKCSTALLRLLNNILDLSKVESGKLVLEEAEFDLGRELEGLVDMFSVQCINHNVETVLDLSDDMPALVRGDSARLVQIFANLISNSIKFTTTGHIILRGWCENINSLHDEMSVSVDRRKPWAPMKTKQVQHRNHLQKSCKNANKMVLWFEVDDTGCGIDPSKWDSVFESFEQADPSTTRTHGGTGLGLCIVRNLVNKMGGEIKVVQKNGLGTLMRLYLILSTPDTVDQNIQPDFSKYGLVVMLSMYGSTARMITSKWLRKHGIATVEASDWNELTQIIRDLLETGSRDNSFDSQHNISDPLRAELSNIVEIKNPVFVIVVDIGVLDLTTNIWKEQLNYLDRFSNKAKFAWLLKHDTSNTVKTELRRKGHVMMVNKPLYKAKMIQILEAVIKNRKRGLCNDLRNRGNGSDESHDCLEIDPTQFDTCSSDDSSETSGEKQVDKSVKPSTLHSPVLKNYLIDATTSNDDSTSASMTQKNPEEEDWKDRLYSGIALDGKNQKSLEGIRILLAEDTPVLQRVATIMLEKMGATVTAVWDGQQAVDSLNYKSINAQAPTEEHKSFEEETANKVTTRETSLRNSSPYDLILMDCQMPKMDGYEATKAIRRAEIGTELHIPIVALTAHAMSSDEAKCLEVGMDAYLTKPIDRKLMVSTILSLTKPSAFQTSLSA

AHP1 (Arabidopsis thaliana), sequence (Q9ZNV9 whole entry): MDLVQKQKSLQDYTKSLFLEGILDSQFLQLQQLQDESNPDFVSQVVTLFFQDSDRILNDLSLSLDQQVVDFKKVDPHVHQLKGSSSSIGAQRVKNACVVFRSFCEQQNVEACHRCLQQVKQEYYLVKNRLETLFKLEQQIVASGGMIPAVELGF

Molecule: ETR1 (from UniProt P49333)
- Kd [1]: 326 nM
- Kd [2]: 1500 nM

Molecule: ETR2 (from UniProt Q0WPQ2)
- Kd [3]: 96 nM

- Kd [4]: 208 nM
Molecule: recombinant full-length Arabidopsis histidine kinase AHK1 (H10-TEV-AHK1), solubilized in FosCholine-16 (from UniProt Q9SXL4 1-1207) (receptor)

- Kd [5]: 317 ± 62 nM
B1: GST-fusion protein of Arabidopsis histidine phosphotransfer protein 2 (AHP2) (natural protein, Arabidopsis thaliana, UniProt Q9ZNV8 1-156, looked up)
chain: MDALIAQLQRQFRDYTISLYQQGFLDDQFTELKKLQDDGSPDFVSEVLSLFFEDCVKLISNMARALDTTGTVDFSQVGASVHQLKGSSSSVGAKRVKTLCVSFKECCEAKNYEGCVRCLQQVDIEYKALKTKLQDMFNLEKQIIQAGGIVPQVDIN
notes: Arabidopsis histidine phosphotransfer protein 2 (AHP2), Arabidopsis thaliana; cDNA cloned into pGEX-6P-1; The apparent mass is 44 kDa; also called AHP2-GST; GST-tagged AHP2
